# According to patent US20210063414A1, “METHODS FOR PREVENTING AND/OR TREATING BONE LOSS CONDITIONS BY MODULATING IRISIN” (Dana-Farber Cancer Institute, Inc., priority 2018, published 2021):
# T1: MLO-Y4 cell surface proteins (Mus musculus, UniProt Q8BJQ9)
# T1 construct: endogenous in cells; host or cells: MLO-Y4
# T1 sequence (Q8BJQ9 1-530): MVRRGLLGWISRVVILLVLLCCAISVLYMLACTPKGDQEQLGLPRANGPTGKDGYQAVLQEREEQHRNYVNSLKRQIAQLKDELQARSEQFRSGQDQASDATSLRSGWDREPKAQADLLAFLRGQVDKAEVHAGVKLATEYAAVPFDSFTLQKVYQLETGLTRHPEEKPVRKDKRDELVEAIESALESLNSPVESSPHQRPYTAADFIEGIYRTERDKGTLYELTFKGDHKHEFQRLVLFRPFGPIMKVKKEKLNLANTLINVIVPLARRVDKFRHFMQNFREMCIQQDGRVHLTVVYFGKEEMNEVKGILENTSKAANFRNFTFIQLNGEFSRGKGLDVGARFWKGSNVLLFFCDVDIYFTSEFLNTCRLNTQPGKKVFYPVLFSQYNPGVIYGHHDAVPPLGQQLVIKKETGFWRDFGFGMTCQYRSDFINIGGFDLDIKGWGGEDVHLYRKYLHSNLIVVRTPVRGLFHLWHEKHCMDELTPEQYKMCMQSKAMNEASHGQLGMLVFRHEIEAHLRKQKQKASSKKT
# B1: irisin: secreted cleaved form of FNDC5; recombinant human/mouse irisin with C-terminal his tag produced in HEK293 cells (protein)
# chain: DSPSAPVNVTVRHLKANSAVVSWDVLEDEVVIGFAISQQKKDVRMLRFIQEVNTTTRSCALWDLEEDTEYIVHVQAISIQGQSPASEPVLFKTPREAEKMASKNKDEVTMKE
# modifications: left off: small tags and cut ends
# notes: secreted cleaved form of FNDC5; recombinant human/mouse irisin with C-terminal his tag produced in HEK293 cells
# Molecular target: T1, MLO-Y4 cell surface proteins
# Experiment: Crosslinking/co-immunoprecipitation/mass spectrometry (TMT quantitative proteomics) to identify irisin receptors
# Type: binding
# Details: co-precipitated protein Csgalnact1 (CGAT1_MOUSE)
# How it was run: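 Mouse MLO-Y4 cells were switched to serum-free FreeStyle medium for 4 h, chilled, then exposed to 10 nM His-tagged irisin (or adipsin as control) for 20 min. Cells were crosslinked with 1.5 mM DTSSP (30 min, ice), and bound proteins were pulled down on Ni-NTA and eluted with 250 mM imidazole. Eluates were separated by SDS-PAGE, trypsin-digested in gel, TMT 6-plex labelled and quantified by MS3-based LC-MS/MS on an Orbitrap Fusion Lumos.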
molecule,measurement,value
B1,TMT signal-to-noise ratio,1300.88
same,irisin/adipsin TMT signal-to-noise ratio,0.536
